B1: Far upstream element-binding protein 3, residues 75 to 150; numbered along this chain, Q96I24 (parent)
chain: RTVITEEFKVPDKMVGFIIGRGGEQISRIQAESGCKIQIASESSGIPERPCVLTGTPESIEQAKRLLGQIVDRCRN

Variants of: B1
Assay: abundance fitness (aPCA) (normalised: wild type 0, dead -1); higher = more abundant; growth selection in yeast, the domain comes from the species named
Details: Homo sapiens

Abundance fitness of substitutions, site by site:
L66: F -0.16; I -0.056; M -0.038; Y -0.078; G -0.134; H -0.148; W -0.17; D -0.123; P -0.899; V -0.115; R -0.061; K -0.066; Q -0.072; N -0.221; S -0.064; C -0.114; E -0.079; A -0.036
G68: T -0.06; N -0.043; M 0.001; V -0.017; A -0.066; P -0.723; E -0.026; H -0.066; F -0.17; D -0.001; I -0.092; L -0.046; C -0.066; R -0.036; W -0.065; Y -0.045; S -0.065
R75: H -0.006; E 0.047; L -0.039; N -0.126; G 0.038; T 0.052; V 0.008; I -0.107; P -0.025; A 0.064; M 0.009; D -0.082; C -0.124; W 0.007; S -0.021; K 0.043; F 0.003; Q -0.026
I60: E -0.877; G -0.988; W -0.995; R -0.21; P -1.1; L -0.119; F -0.754; M -0.343; K -0.767; C -0.088; N -0.182; A -0.542; Y -1; H -0.631; V -0.025; S -0.836; D -0.972; Q -0.806; T -0.223
Q62: G -0.055; S -0.023; Y -0.096; A -0.01; H -0.011; C -0.011; D -0.005; L -0.044; K -0.019; N -0.041; I -0.043; V -0.008; F -0.043; M -0.023; R -0.043; W -0.102
C74: I -0.057; Y -0.126; V -0.037; W -0.022; G 0.041; R 0.008; S -0.01; D -0.068; N -0.007; Q -0.002; M -0.021; H 0.031; E -0.041; K -0.027; A 0.02; T 0.004
L67: T -0.666; H -0.908; Q -0.839; I -0.131; C -0.397; D -0.884; S -0.811; A -0.845; K -0.834; E -0.757; G -0.864; F -0.367; M -0.099; P -0.649; Y -1.04; N -0.884; W -0.981; R -1.01
I70: A 0.05; D -0.209; E -0.004; R -0.024; M -0.013; V 0.024; L -0.035; W -0.102; C -0.023; N -0.261; T 0.014; S -0.055; P -0.335; Y 0.044; G -0.205; F -0.044; K -0.138; H -0.096; Q -0.064
R65: F 0.017; D -0.031; Q -0.004; L -0.017; I 0.057; S -0.026; T -0.014; N 0.013; G -0.053; Y -0.046; A -0.031; E 0.013; C -0.092; V -0.006; W -0.069; K 0.012
K64: C -0.453; L -0.491; E -0.388; T -0.285; M -0.336; A -0.429; H -0.421; D -0.89; Q -0.197; P -1.14; G -0.658; W -0.578; I -0.275; V -0.35; F -0.801; R -0.095; Y -0.505; S -0.416
V71: R -0.151; N -0.072; P -0.198; S -0.118; E -0.073; M -0.013; L -0.092; Q -0.048; H -0.21; G -0.105; F -0.099; W -0.175; Y -0.047; D -0.159; K -0.132; A -0.117; T -0.026; I -0.018
N76: C -0.069; M -0.008; P 0.007; Q -0.145; R 0.055; F 0.023; H -0.1; K -0.183; E -0.025; L -0.028; I -0.178; A 0.036
P57: Q -0.023; N -0.1; T 0.006; M -0.111; R -0.013; W -0.073; Y -0.133; S -0.109; V -0.06
R73: N 0.037; T 0.019; W -0.089; F -0.103; D 0.047; S -0.04; E 0.043; L -0.104; M -0.048; G 0.054; I -0.136; Y -0.151; P -0.001; V -0.037; C -0.157
A63: K -0.968; P -0.986; H -0.911; C -0.03; T -0.412; S -0.401; V -0.31; M -0.292; E -0.831; F -0.427; L -0.746; W -1.25; Y -1.59; R -1.22; I -0.457; Q -0.907; G -0.065; N -1.25
D72: E 0.003; L -0.083; V -0.093; S -0.035; M -0.084; H -0.023; Y -0.124; A -0.052; C -0.138; N -0.155; K -0.048; G -0.033; W -0.108; T -0.1; F -0.118; Q -0.086; I -0.225; P -0.142
Q69: H 0.021; D 0.021; C -0.076; K -0.046; W -0.283; I 0.02; R 0.005; A -0.006; P -0.156; M -0.03; V -0.009; E 0.025; F -0.181; G -0.012; N -0.059; S -0.002
S59: F -1.1; V -0.284; Q -0.014; L -0.797; W -0.999; I -0.621; D -0.1; C -0.146; M -0.152; T -0.119; R -0.141; Y -0.675; P -0.866; N -0.013; H -0.221; E -0.04; G -0.065; K -0.161; A -0.045
E58: T -0.003; Q -0.066; M -0.128; S -0.05; N -0.091; A -0.025; R -0.086; G -0.047; L -0.17; F -0.124; H -0.226; V -0.107; K 0.045; P -0.108; D -0.054; W -0.161; I -0.256
E61: C -0.078; F -0.035; T -0.009; A -0.037; K -0.026; S -0.026; G -0.017; P -0.553; I -0.105; V -0.046; H -0.031; N -0.064; W -0.111; L -0.082; D 0.027; Q -0.018; R -0.046
